Test [1] relates to PAI-1 in U87MG cells. The test is described as follows: Western blot of PAI-1. The conditions noted are these: 500 μM dB-cAMP, 6 days. Type of test: cell-based, human. As to the method: Cellular proteins were extracted using CHAPS buffer. Proteins were separated on a 10% SDS-PAGE gel and transferred onto nitrocellulose membranes. Membranes were blocked with 5% instant skim dry milk in PBST for 1 hour, then washed twice for 5 min with PBST. Blots were probed with 1:500 dilution of the PAI-1 primary antibody (Biogenesis Ltd, England, UK) in 2% skim milk in PBST supplemented with 10 mM sodium azide overnight at 4° C. After washing in PBST, membranes were incubated with HRP-labeled anti-mouse IgG secondary antibody (NEN Life Science Products, USA; 1:5000) for 1 h at room temperature. Bands were visualized using Western Blot Chemiluminescence Reagent Plus kit (NEN™ Life Science Products) and the Fluor-S™ multiImager (BioRad Lab., Hercules, Calif., USA).
(Immunoblotting shows a protein as a band on a membrane.)

Test [2] has as its system plasminogen activator activity in U87MG cells. The test is described as follows: Plasminogen activator activity assay (S-2251). Type of test: cell-based, human. The conditions noted are these: 500 μM dB-cAMP, 3-day treatment. The procedure:
Plasminogen activator activity (PAA) was determined by a spectrophotometric method using the chromogenic substrate S-2251 (D-Val-Leu-Lys p-nitroanilide dihydrochloride). […] Cells were washed 3 times and incubated for 2 h at 37° C. in phenol red-free D-MEM containing 2 c.u./ml plasminogen (DiaPharma Group, Ohio, USA) and 2 mM chromogenic substrate S-2251 (DiaPharma Group, Ohio, USA). The cleavage of 4-nitroaniline from the substrate by plasminogen activator was measured photometrically at 405 nm. Protein levels were measured with BioRad protein assay and PPA was expressed as a function of protein content in cell extracts.

Test [3] deals with U87MG cells. The test is described as follows: U87MG proliferation, CyQUANT Cell Proliferation Assay. Type of test: cell-based, human. To be noted: for decrease in proliferation: 500 μM dB-cAMP. The procedure: Proliferation rates of U87MG cells were determined using CyQUANT® Cell Proliferation Assay Kit (Molecular Probes, Inc., Eugene, Oreg.). […] Cells were fed every two days and harvested at days 2, 3, 5 and 6 by washing with HBSS, blotting microplates dry and storing at −80° C. until analysis. For cell density determination, plates were thawed at room temperature, 200 μl of CyQUANT GR dye/lysis buffer was added to each well and plates were incubated in the dark for 5 min. Sample fluorescence was measured (485 nm ex/530 nm em) in a cytofluorimeter plate reader (Bio-Tek FL600) and fluorescence values converted into cell numbers from cell reference standard curves.

Test [4] deals with U87MG cells. The test is described as follows: ELISA of secreted proteins in U87MG conditioned media. Type of test: cell-based, human. To be noted: 500 μM dB-cAMP, 6 days. (In general: In an ELISA, binding on a coated surface is turned into a signal by an enzyme label.)
For test [5], the system named is human brain endothelial cells (HBEC). Kind of test: Capillary-like tube (CLT) formation in Matrigel. To be noted: for effect on IGF-1-induced CLT formation: IGF-1 150 ng/ml; for effect on IGF-1-induced CLT formation / effect on P1GF-induced CLT formation / effect on VEGF165-induced CLT formation / effect on bFGF-induced CLT formation: protein 500 ng/ml; for effect on P1GF-induced CLT formation: P1GF 100 ng/ml; for effect on VEGF165-induced CLT formation: VEGF165 20 ng/ml; for effect on bFGF-induced CLT formation: bFGF 20 ng/ml. It is filed as cell-based. The text has this:
Angiogenesis is the formation of new blood vessels from pre-existing capillaries. There are different methods to evaluate angiogenesis in vitro and in vivo. The method used in our studies consists in seeding human brain microvascular endothelial cells on Matrigel, which is an active matrix material resembling the mammalian cellular basement membrane. Endothelial cells seeded on Matrigel behave as they do in vivo and when submitted to an angiogenic stimuli reorganize forming a complex network of capillary-like tubes. The total length of the capillary-like tube network as well as the number of branching point (nodes) formed by the endothelial cells directly correlate with the potency of the angiogenic stimuli.
In vitro angiogenesis was assessed by endothelial tube formation in growth factor reduced Matrigel™ (BD Bioscience, Bedford, Mass.). 24-well plates were coated with 300 μl of unpolymerized Matrigel™ (5-7 mg prot/ml) and allowed to polymerize for 90 min at 37° C. […] In a set of experiments, 500 ng/ml of either full length recombinant IGFBP-4, NBP-4 or CBP-4 were co-applied with growth factors (IGF-I, VEGF165, P1GF, or bFGF) or U87MG CM. […] CLT formation was analyzed after 24 h using an Olympus 1×50 microscope. Phase contrast images were captured with a digital video camera (Olympus U-CMT) and analyzed using Northern Eclipse v.5.0 software. Microphotographs were thresholded, converted to binary images and skeletonized. The total length of the CLT networks and the number of nodes (branching points) formed by HBEC in the center of the well (˜80% of the total surface) were quantified. […]

For test [6], the system named is U87MG cells. The test is described as follows: Anchorage-independent growth in semi-solid agar (U87MG). The conditions noted are these: for reduction of U87MG colony formation / tumor growth in soft agar: 500 ng/ml protein. Type of test: cell-based, human. As to the method: D-MEM containing 10% FBS was warmed to 48° C. and diluted with Bacto-Agar to make a 0.6% (w/v) agar solution; 3 ml of agar solution was poured into 60 mm plates. […] Number and size of colonies formed were analyzed under the microscope (Olympus 1×50). Phase contrast images (6 fields/dish) were captured using a digital video camera (Olympus U-CMT) and analyzed with Northern Eclipse v.5.0 software. Each experiment was done in triplicate. Capillary-like tube (CLT) formation

For test [7], the system named is U87MG cells. Kind of test: Real-time PCR (Q-PCR) gene expression. It is filed as cell-based, human. The conditions noted are these: 500 μM dB-cAMP. As to the method:
Total RNA was isolated from cells with TRIzol Reagent (Gibco BRL). The RNA (1 μg) was primed with oligo (dT)12-18 primers (0.5 μg/μg RNA, Gibco BRL) and reverse transcribed with 1-3 U of avian myeloblastosis virus reverse transcriptase (AMV RT, Promega) in a final volume of 20 μl. Completed RT reactions were diluted to 40 μl with water. Control reactions without the enzyme were run in parallel to monitor for potential genomic contamination. Primers were designed (Primer Express Software v2.0) for genes of interest (Table III) using Primer Express 2.0 program. Real-Time PCR was carried out with SYBR Green PCR Core Reagents Kit (Applied Biosystems, CA, USA) using the GeneAmp® 5700 Sequence Detection System (Perkin Elmer Applied Biosystems). A cDNA pool serially diluted from 1:10 to 1:1000 was used to generate standard curves. Reactions were performed in 20 μl reaction mixture containing 1×SYBR PCR buffer (Perkin-Elmer), 200 μM of each dATP, dCTP, dGTP and 400 μM dUTP, 0.025 U/μl AmpliTaq Gold, 0.01 U/μl AmpEraseUNG (uracil-N-glycosylase), 3 mM MgCl2, 120 nM of each primer and 2 μl of cDNA. […] Fluorescence was detected at the end of every 60° C. phase. […]
The PCR cycle number at which fluorescence reaches a threshold value of 10 times the standard deviation of baseline emission was used for quantitative measurements. […]
(Quantitative PCR measures a nucleic acid by following its amplification.)

The test system of test [8] is Hela cells. Kind of test: Anchorage-independent growth in semi-solid agar (Hela). It is filed as cell-based, human. The conditions noted are these: 500 ng/ml IGFBP-4, 4 weeks. The procedure: D-MEM containing 10% FBS was warmed to 48° C. and diluted with Bacto-Agar to make a 0.6% (w/v) agar solution; 3 ml of agar solution was poured into 60 mm plates. […] The solidified cell layer was covered with 500 μl D-MEM±treatment which was replaced every three days over a 20-25 day period. Number and size of colonies formed were analyzed under the microscope (Olympus 1×50). Phase contrast images (6 fields/dish) were captured using a digital video camera (Olympus U-CMT) and analyzed with Northern Eclipse v.5.0 software. Each experiment was done in triplicate. Capillary-like tube (CLT) formation

[9] abbreviates: 500 ng/ml protein co-applied with U87MG CM.

On to `CCCC(=O)Nc1ncnc2c1ncn2[C@@H]1O[C@@H]2COP(=O)(O)O[C@H]2[C@H]1OC(=O)CCC` [dB-cAMP, dibutyryl cyclic AMP], for which, in test [1], the PAI-1 protein expression entry is “up-regulation”. Also, the “reduction in plasminogen activator activity (PAA)” value in test [2] is recorded as 30%. For the same molecule, the decrease in proliferation in test [3] (day 3) is recorded as ~30%; in test [3] (day 5) it was ~45%; in test [3] (day 6) it was ~50%. For the same molecule, in test [4], the “VEGF-A levels in CM, increase vs untreated” value is on record as 20%. The “levels of P1GF, IGF-1 and bFGF in CM” value in test [4] is “below the detection limit”. Also, the “VEGF-A level in CM of treated cells” value in test [4] (untreated ~60) was ~80 ng/mL. Moreover, in test [5] (500 μM dB-cAMP added directly to U87MG CM), the “effect on U87MG CM-induced CLT formation” value was “did not inhibit CLT formation”. Also, the “CLT formation by HBEC exposed to CM of dB-cAMP-treated U87MG” value in test [5] (U87MG treated with 500 μM dB-cAMP, 6 days) is “blocks the angiogenic response”. Besides, the “total number of colonies vs untreated” value in test [6] (500 μM dB-cAMP or 500 ng/ml IGFBP-4) was “not significantly (p<0.05) different”. Further, the “reduction of size of colonies (total covered area per field)” value in test [6] (500 μM dB-cAMP, 4 weeks) is ~75%. Moreover, the “size of colonies (total covered area per field)” value in test [6] (500 μM dB-cAMP, 4 weeks, untreated 1.1±0.3) was 0.3±0.1 mm^2. In addition, the “IGF-I and IGF-II mRNA change, Q-PCR” value in test [7] is “no changes were detected”. In addition, the “IGFBP-3 mRNA levels treated vs untreated, Q-PCR” value in test [7] (day 6) is “not significantly different”.

In the case of “vascular endothelial growth factor-165 [VEGF]”, the “HBEC preparations in which CLT formation was induced” value in test [5] (7 HBEC isolations, VEGF 20 ng/ml alone or U87MG CM) is given as 3 out of 7.

B1: CBP-4: recombinant C-terminal IGFBP-4 protein fragment, aa 155 to 258 of the precursor, tagged (protein)
chain: MLLLLLLLGLRLQLSLGIASKVNGAPREDARPVPQGSCQSELHRALERLAASQSRTHEDLYIIPIPNCDRNGNFHPKQCHPALDGQRGKCWCVDRKTGVKLPGGLEPKGELDCHQLADSFREVDPWSHPQFEKTGHHHHHHHHGGQ
modifications: tagged; IGFBP4 C-terminal construct
notes: recombinant C-terminal IGFBP-4 protein fragment, aa 155 to 258 of the precursor, tagged
As to B1, the “effect on U87MG CM-induced CLT formation” value in test [5] (setting [9]) is “completely blocking”. Moreover, in test [5], the “effect on IGF-1-induced CLT formation” value is reported as “completely blocking”, the “effect on P1GF-induced CLT formation” value is “completely blocking”, the “effect on VEGF165-induced CLT formation” value was “completely blocking” and the “effect on bFGF-induced CLT formation” value is “completely blocking”. In addition, the “reduction of U87MG colony formation / tumor growth in soft agar” value in test [6] (4 weeks) is ~55%.

B2: insulin-like growth factor binding protein (IGFBP)-4 (protein)
chain: MLPLCLVAALLLAAGPGPSLGDEAIHCPPCSEEKLARCRPPVGCEELVREPGCGCCATCALGLGMPCGVYTPRCGSGLRCYPPRGVEKPLHTLMHGQGVCMELAEIEAIQESLQPSDKDEGDHPNNSFSPCSAHDRRCLQKHFAKIRDRSTSGGKMKVNGAPREDARPVPQGSCQSELHRALERLAASQSRTHEDLYIIPIPNCDRNGNFHPKQCHPALDGQRGKCWCVDRKTGVKLPGGLEPKGELDCHQLADSFREVDPWSHPQFEKTGHHHHHHHHGGQ
modifications: Streptag-II/His8 tag; IGFBP-4 construct
notes: full length recombinant IGFBP-4 with Streptag-II/(His)8 tag, aa 1 to 258
For the molecule B2, the “effect on U87MG proliferation rates” value in test [3] (500 ng/ml) is “did not affect U87MG proliferation rates”. The “reduction of Hela colony formation / colony size” value in test [8] is given as ~45%. Further, the “reduction of Hela colony formation / colony size” value in test [8] (listed as IGFBP4) is on record as ~50%. Besides, in test [5] (setting [9]), the “effect on U87MG CM-induced CLT formation” value is “reversed U87MG CM-stimulated CLT (FIG. 4A-C) to control levels”. Further, in test [5], the “effect on IGF-1-induced CLT formation” value is reported as “potently inhibited”, the “effect on P1GF-induced CLT formation” value is reported as “antagonized”, the “effect on VEGF165-induced CLT formation” value was “antagonized” and the “effect on bFGF-induced CLT formation” value is reported as “antagonized”. Besides, the “size of colonies (total area per field)” value in test [6] (500 ng/ml IGFBP-4, 4 weeks, untreated 1.5±0.6) amounted to 0.4±0.3 mm^2. The “reduction of U87MG colony formation / tumor growth in soft agar” value in test [6] (4 weeks) was ~80%.

B3: NBP-4: recombinant N-terminal IGFBP-4 protein fragment, aa 1 to 156 of the precursor, tagged (protein)
chain: MLPLCLVAALLLAAGPGPSLGDEAIHCPPCSEEKLARCRPPVGCEELVREPGCGCCATCALGLGMPCGVYTPRCGSGLRCYPPRGVEKPLHTLMHGQGVCMELAEIEAIQESLQPSDKDEGDHPNNSFSPCSAHDRRCLQKHFAKIRDRSTSGGKMDPWSHPQFEKTGHHHHHHHHGGQ
modifications: tagged; IGFBP4 N-terminal fragment construct
notes: recombinant N-terminal IGFBP-4 protein fragment, aa 1 to 156 of the precursor, tagged
As for B3, in test [5], the “effect on IGF-1-induced CLT formation” value is on record as “abolish the angiogenic response” and the “effect on VEGF165-induced CLT formation” value is “abolish the angiogenic response”. Moreover, the “reduction of U87MG colony formation / tumor growth in soft agar” value in test [6] (4 weeks) was ~50%.
